In publication PMC2807035:
Values belong to the molecule of their own block, whether it stands above or below them.

How the values were obtained:
[1] = biological target: triple-helical collagen peptide GPC-(GPP)5-GPRGQOGVNleGFO-(GPP)5-GPC-NH2; test: ELISA; solid-phase binding assay: DS2-Fc added to 96-well plates coated with triple-helical collagen peptides at 10 μg/ml
[2] = biological target: triple-helical collagen peptide Ac-GPOGPOGPOGPRGQOGVNleGFOGPOGPOG-NH2; test: crystal structure; complex formed at molar peptide:protein ratio ~1.5:1; hanging drop vapor diffusion at room temperature, 0.1 M PCB pH 7.0, 25% PEG1500; 1.6 Å, molecular replacement
[3] = biological target: triple-helical collagen peptide Ac-GPOGPOGPOGPRGQOGVNleGFOGPOGPOG-NH2; test: SEC; analytical size exclusion chromatography, 24 ml Superdex 75, 20 mM MES, 100 mM NaCl pH 6.5; 16 nmol DS domain in PBS alone or mixed with varying amounts of collagen peptide (two-fold molar excess for the complex), incubated 30 min in 0.5 ml

fold increase of binding against the methionine peptide [1]: 10 fold
Molecule: DS2-Fc (Fc-tagged DS domain of DDR2) (Fc fusion)

stoichiometry N [2]: 3
Molecule: triple-helical collagen peptide Ac-GPOGPOGPOGPRGQOGVNleGFOGPOGPOG-NH2

stoichiometry N [3]: 1
B1: DS domain of human DDR2 (His-tagged, residues 26-190) (domain or fragment)
chain: NPAICRYPLGMSGGQIPDEDITASSQWSESTAAKYGRLDSEEGDGAWCPEIPVEPDDLKEFLQIDLHTLHFITLVGTQGRHAGGHGIEFAPMYKINYSRDGTRWISWRNRHGKQVLDGNSNPYDIFLKDLEPPIVARFVRFIPVTDHSMNVCMRVELYGCVWLDG
